Positions count from the first letter of the chain named. One block for each binder: values may come before it.
Columns and labels:
NOV1401 [1] = molecular target: T1, NOV1401; assay: SPR (ProteOn XPR36), NOV1401 immobilized, Fab as analyte, 1:1 Langmuir fit, average
T1 construct: It was amine-coupled to the chip in SPR, and used soluble and biotinylated in SET; also called anti-FXI/FXIa antibody NOV1401; anti-Factor XI/FXIa antibody NOV1401
Method: SPR binding experiments were performed on a ProteOn XPR36 instrument (Bio-Rad Laboratories, Inc.) in PBS/T buffer (50 mM phosphate, 150 mM NaCl, pH 7.4, 0.005% v/v Tween-20) at 25° C. NOV1401 (‘Ligand’) was immobilized onto an activated ProteOn GLC sensor chip (Bio-Rad Laboratories, Inc.) using standard amine coupling procedures as described by the manufacturer. Briefly, NOV1401 was injected at a concentration of 10 μg/ml in 20 mM sodium acetate, pH 5.0 and at a flow rate of 30 μl/min for 10 min. Unreacted groups were blocked by injecting 1 M ethanolamine.
For kinetic studies anti-NOV1401 Fabs (‘Analytes’) were diluted in PBS/T buffer to generate a dilution series with concentrations ranging from 0.125-4 nM. Fabs were injected onto surfaces with immobilized NOV1401 at a flow rate of 100 μL/min and sensorgrams were recorded for association and dissociation times of 220 s and 1800 s, respectively. Blank surfaces were used for background corrections. There was no need to regenerate surfaces since the ProteOn protein interaction array system allows to run up to six binding experiments on an identical surface in parallel.
Data processing and analysis including kon, koff, and KD determination were performed with the ProteOn Manager™ software version 3.1.0.6.

NOV1401 [2] = molecular target: T1, NOV1401; assay: cell-based or functional assay
NOV1401 [3] = molecular target: T1, NOV1401; assay: cell-based or functional assay; remark: listed apart in the source
NOV1401 [4] = molecular target: T1, NOV1401; assay: Solution equilibrium titration (SET), 1:1 fit, average
Method: (§1) 14 serial (2×) dilutions of NOV1401 were prepared in sample buffer (PBS pH 7.4 containing 0.5% (w/v) BSA and 0.02% Tween 20) and a constant concentration of the anti-NOV1401 Fab or IgG was added to each NOV1401 concentration ranging from 40 pM to 240 pM. Optimal constant anti-NOV1401 Fab or IgG concentrations and optimal starting concentrations for NOV1401 dilution series were determined in pilot experiments.
(§2) After incubation and three times washing with PBST (PBS containing 0.05% Tween 20) 30 μl/well of the NOV1401/anti-NOV1401 Fab or IgG preparation was transferred from the polypropylene MTP to the NOV1401-coated SA plate and incubated for 30 min at RT on a MTP shaker. After three additional wash steps, 30 μl of 0.5 μg/ml detection antibody (Goat anti-human Kappa LC-HRP, BETHYL # A80-115P) diluted in sample buffer was added to each well and incubated for 1 h at RT with shaking. After washing the plate again three times, 30 μl of detection reagent (LumiGLO Peroxidase Chemiluminescent Substrate, KPL #54-61-01) was added to each well. Electrochemiluminescence (ECL) signals were generated and detected immediately with a luminescence imager (SpectraMax M5, Molecular Devices, LLC).
Average ECL-signals were calculated from duplicate measurements within each assay. Data were baseline adjusted by subtracting the lowest value from all data points and plotted against the corresponding antigen concentration. KD values were determined by fitting the plot with the following non-linear curve fitting model for 1:1 binding according to Haenel et al 2005: […]

NOV1401 [5] = molecular target: T1, NOV1401; assay: Solution equilibrium titration (SET), IgG, 1:1 fit, average
Method: as §1
as §2, with “After washing the plate again three times, 30 μl of detection reagent (LumiGLO Peroxidase Chemiluminescent Substrate, KPL #54-61-01) was added to each well.” left out
(§3) Average ECL-signals were calculated from duplicate measurements within each assay. […] KD values were determined by fitting the plot with the following non-linear curve fitting model for 1:1 binding according to Haenel et al 2005: […]
Target sequence in this assay (VL, as listed by the source): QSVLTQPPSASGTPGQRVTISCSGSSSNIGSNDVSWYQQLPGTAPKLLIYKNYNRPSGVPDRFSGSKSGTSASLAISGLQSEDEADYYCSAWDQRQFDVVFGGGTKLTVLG

NOV1401 [6] = molecular target: T1, NOV1401; assay: SET (solution equilibrium titration): constant anti-NOV1401 Fab with a NOV1401 dilution series, free Fab captured on a biotinylated-NOV1401 streptavidin plate, luminescence (RLU), 1:1 fit
Method: as §1
as §2, with “After washing the plate again three times, 30 μl of detection reagent (LumiGLO Peroxidase Chemiluminescent Substrate, KPL #54-61-01) was added to each well.” left out
as §3
Target sequence in this assay (VL, as listed by the source): as above

B1: IDT6 (Fab, V domains shown)
VH: QVQLVQSGAEVKKPGESLKISCKGSGYSFTNYWIGWVRQMPGKGLEWMGIIFPGVSYTKYSPSFQGQVTISADKSISTAYLQWSSLKASDTAMYYCARGSDQTLRGSRAMDYWGQGTLVTVSS
VL: QSALTQPASVSGSPGQSITISCTGTSSDVGISNYVSWYQQHPGKAPKLMIYEVSNRPSGVSNRFSGSKSGNTASLTISGLQAEDEADYYCQSYTSLNYVFGGGTKLTVLG
notes: Fab with a lambda light chain; also called anti-NOV1401 Fab IDT6
- Kd (NOV1401 [1]): 10100 pM
- TGA percentage reversal, NOV1401/anti NOV1401 ratio 1/1 (n/n) (NOV1401 [2]): 18%
- TGA percentage reversal, NOV1401/anti NOV1401 ratio 1/3 (n/n) (NOV1401 [2]): 41%
- TGA percentage reversal, NOV1401/anti NOV1401 ratio 1/10 (n/n) (NOV1401 [2]): 37%
- aPTT percentage reversal, NOV1401/anti NOV1401 ratio 1/1 (n/n) (NOV1401 [3]): 9%
- aPTT percentage reversal, NOV1401/anti NOV1401 ratio 1/3 (n/n) (NOV1401 [3]): 22%
- aPTT percentage reversal, NOV1401/anti NOV1401 ratio 1/10 (n/n) (NOV1401 [3]): 38%

B4: IDT12 (antibody, human IgG1, kappa, V domains shown)
VH: QVQLVESGGGLVKPGGSLRLSCAASGFTFSSAAVHWVRQAPGKGLEWVGRIKSKADGGTTDYAAPVKGRFTISRDDSKNTLYLQMNSLKTEDTAVYYCARDSPSISSYSIPYFSGMDVWGQGTLVTVSS
VL: DIQMTQSPSSLSASVGDRVTITCRASQGIRAWLNWYQQKPGKAPKLLIYAASSLQSGVPSRFSGSGSGTDFTLTISSLQPEDFATYYCHQYITHPPTFGQGTKVEIKR
notes: also called anti-NOV1401 IgG IDT12; full length IgG format for IDT2
- Kd (NOV1401 [5]): 5.1 pM
- TGA percentage reversal, NOV1401/anti NOV1401 ratio 1/1 (n/n) (NOV1401 [2]): 60%
- TGA percentage reversal, NOV1401/anti NOV1401 ratio 1/3 (n/n) (NOV1401 [2]): 64%
- TGA percentage reversal, NOV1401/anti NOV1401 ratio 1/10 (n/n) (NOV1401 [2]): 62%
- aPTT percentage reversal, NOV1401/anti NOV1401 ratio 1/1 (n/n) (NOV1401 [3]): 9%
- aPTT percentage reversal, NOV1401/anti NOV1401 ratio 1/3 (n/n) (NOV1401 [3]): 51%
- aPTT percentage reversal, NOV1401/anti NOV1401 ratio 1/10 (n/n) (NOV1401 [3]): 61%

Other lines, results leading:

- Kd (NOV1401 [4]): 100 pM
- Kd (NOV1401 [1]): 230 pM
- TGA percentage reversal, NOV1401/anti NOV1401 ratio 1/1 (n/n) (NOV1401 [2]): 55%
- TGA percentage reversal, NOV1401/anti NOV1401 ratio 1/3 (n/n) (NOV1401 [2]): 57%
- TGA percentage reversal, NOV1401/anti NOV1401 ratio 1/10 (n/n) (NOV1401 [2]): 61%
- aPTT percentage reversal, NOV1401/anti NOV1401 ratio 1/1 (n/n) (NOV1401 [3]): 21%
- aPTT percentage reversal, NOV1401/anti NOV1401 ratio 1/3 (n/n) (NOV1401 [3]): 42%
- aPTT percentage reversal, NOV1401/anti NOV1401 ratio 1/10 (n/n) (NOV1401 [3]): 55%
B2: IDT2 (Fab, V domains shown)
VH: B4 VH
VL: B4 VL
notes: Fab; also called anti-NOV1401 Fab IDT2

- Kd (NOV1401 [4]): 680 pM
- Kd (NOV1401 [1]): 1920 pM
- TGA percentage reversal, NOV1401/anti NOV1401 ratio 1/1 (n/n) (NOV1401 [2]): 41%
- TGA percentage reversal, NOV1401/anti NOV1401 ratio 1/3 (n/n) (NOV1401 [2]): 61%
- TGA percentage reversal, NOV1401/anti NOV1401 ratio 1/10 (n/n) (NOV1401 [2]): 72%
- aPTT percentage reversal, NOV1401/anti NOV1401 ratio 1/1 (n/n) (NOV1401 [3]): 10%
- aPTT percentage reversal, NOV1401/anti NOV1401 ratio 1/3 (n/n) (NOV1401 [3]): 25%
- aPTT percentage reversal, NOV1401/anti NOV1401 ratio 1/10 (n/n) (NOV1401 [3]): 46%
B3: IDT9 (Fab, V domains shown)
VH: QVQLVQSGAEVKKPGASVKVSCKASGYTFTNYYVHWVRQAPGQGLEWMGWINPYNGNTNYAQKFQGRVTMTRDTSISTAYMELSRLRSEDTAVYYCARGASSIRMSYYLDVWGQGTLVTVSS
VL: B4 VL with G28S, R30S, A31N, W32Y, S53N, H89F, I92T, T93H, H94S, P96A
notes: Fab; also called anti-NOV1401 Fab IDT9

- Kd (NOV1401 [6]): 160 pM
- Kd (NOV1401 [4]): 960 pM
- Kd (NOV1401 [1]): 330 pM
- TGA percentage reversal, NOV1401/anti NOV1401 ratio 1/1 (n/n) (NOV1401 [2]): 50%
- TGA percentage reversal, NOV1401/anti NOV1401 ratio 1/3 (n/n) (NOV1401 [2]): 66%
- TGA percentage reversal, NOV1401/anti NOV1401 ratio 1/10 (n/n) (NOV1401 [2]): 71%
- aPTT percentage reversal, NOV1401/anti NOV1401 ratio 1/1 (n/n) (NOV1401 [3]): 16%
- aPTT percentage reversal, NOV1401/anti NOV1401 ratio 1/3 (n/n) (NOV1401 [3]): 37%
- aPTT percentage reversal, NOV1401/anti NOV1401 ratio 1/10 (n/n) (NOV1401 [3]): 54%
B5: IDT7 (Fab, V domains shown)
VH: QVQLVESGGGLVKPGGSLRLSCAASGFTFSSNAMHWVRQAPGKGLEWVGRIKSKTDGGTTDYAAPVKGRFTISRDDSKNTLYLQMNSLKTEDTAVYYCARDHYYYPFAYWGQGTLVTVSS
VL: B4 VL with G28S, A31Y, W32N, N34A, T93A, H94K, P96I
notes: Fab; also called anti-NOV1401 Fab IDT7

From patent US20200308301A1 (Novartis, published 2020)
